Reference: publication PMC8406312, “Reovirus Nonstructural Protein σNS Recruits Viral RNA to Replication Organelles” (mBio, 2021)
Changes are numbered by the printed parent chain. Names and notes keep the numbering of the source.

B1: reovirus nonstructural protein σNS, wild type, in vitro expressed (natural protein)
chain: MASSLRAAISKIKRDDVGQQVCPNYVMLRSSVTTKVVRNVVEYQIRTGGFFSCLAMLRPLQYAKRERLLGQRNLERISTRDILQTRDLHSLCMPTPDAPMSNHQASTMRELICSYFKVDHADGLKYIPMDERYSPSSLARLFTMGMAGLHITTEPSYKRVPIMHLAADLDCMTLALPYMITLDGDTVVPVAPTLSAEQLLDDGLKGLACMDISYGCEVDANSRPAGDQSMDSSRCINELYCEETAEAICVLKTCLVLNCMQFKLEMDDLAHNAAELDKIQMMIPFSERVFRMASSFATIDAQCFRFCVMMKDKNLKIDMRETTRLWTRSASDDSVATSSLSISLDRGRWVAADASDARLLVFPIRV
modifications: [35S]methionine-labelled
notes: nonstructural protein σNS of mammalian orthoreovirus (reovirus) strain T3D, S3 gene; same plasmid as m1, expressed in reticulocyte lysate; also called WT σNS; source: in vitro translated (TNT T7 polymerase-coupled rabbit reticulocyte lysate), not purified
B2: σNS R6A, in vitro expressed (natural protein)
chain: B1 chain with R6A
modifications: [35S]methionine-labelled
notes: nonstructural protein σNS of mammalian orthoreovirus (reovirus) strain T3D, S3 gene; same plasmid as m2; also called R6A σNS; source: in vitro translated (TNT T7 polymerase-coupled rabbit reticulocyte lysate), not purified
B3: σNS K11A, in vitro expressed (natural protein)
chain: B1 chain with K11A
modifications: [35S]methionine-labelled
notes: nonstructural protein σNS of mammalian orthoreovirus (reovirus) strain T3D, S3 gene; same plasmid as m3; also called K11A σNS; source: in vitro translated (TNT T7 polymerase-coupled rabbit reticulocyte lysate), not purified
B4: σNS R14A, in vitro expressed (natural protein)
chain: B1 chain with R14A
modifications: [35S]methionine-labelled
notes: nonstructural protein σNS of mammalian orthoreovirus (reovirus) strain T3D, S3 gene; same plasmid as m4; also called R14A σNS; source: in vitro translated (TNT T7 polymerase-coupled rabbit reticulocyte lysate), not purified
B5: σNS TriA (K11A, K13A, and R14A), in vitro expressed (natural protein)
chain: B1 chain with K11A, K13A, R14A
modifications: [35S]methionine-labelled
notes: nonstructural protein σNS of mammalian orthoreovirus (reovirus) strain T3D, S3 gene; same plasmid as m5; also called TriA σNS; source: in vitro translated (TNT T7 polymerase-coupled rabbit reticulocyte lysate), not purified
B6: σNS Y25A, in vitro expressed (natural protein)
chain: B1 chain with Y25A
modifications: [35S]methionine-labelled
notes: nonstructural protein σNS of mammalian orthoreovirus (reovirus) strain T3D, S3 gene; same plasmid as m6; also called Y25A σNS; source: in vitro translated (TNT T7 polymerase-coupled rabbit reticulocyte lysate), not purified
B7: σNS R29A, in vitro expressed (natural protein)
chain: B1 chain with R29A
modifications: [35S]methionine-labelled
notes: nonstructural protein σNS of mammalian orthoreovirus (reovirus) strain T3D, S3 gene; same plasmid as m7; also called R29A σNS; source: in vitro translated (TNT T7 polymerase-coupled rabbit reticulocyte lysate), not purified
B8: σNS K35A, in vitro expressed (natural protein)
chain: B1 chain with K35A
modifications: [35S]methionine-labelled
notes: nonstructural protein σNS of mammalian orthoreovirus (reovirus) strain T3D, S3 gene; same plasmid as m8; also called K35A σNS; source: in vitro translated (TNT T7 polymerase-coupled rabbit reticulocyte lysate), not purified
B9: σNS R38A, in vitro expressed (natural protein)
chain: B1 chain with R38A
modifications: [35S]methionine-labelled
notes: nonstructural protein σNS of mammalian orthoreovirus (reovirus) strain T3D, S3 gene; same plasmid as m9; also called R38A σNS; source: in vitro translated (TNT T7 polymerase-coupled rabbit reticulocyte lysate), not purified

Target: the molecule itself
Assay: native gel or EMSA; 35S-labelled σNS expressed in rabbit reticulocyte lysate, incubated with 10 μg RNase A at 37°C for 1 h; blue native PAGE, 4-16% bis-Tris, 4°C; autoradiography

| Protein | stoichiometry N |
| --- | --- |
| B1 | 2 |

Target: the molecule itself
Assay: native gel or EMSA; 35S-labelled σNS expressed in rabbit reticulocyte lysate, incubated without RNase A (125 mM NaCl) at 37°C for 1 h; blue native PAGE, 4-16% bis-Tris, 4°C; autoradiography; RNA of the lysate present, the ladders of oligomers are RNA-dependent

| Protein | stoichiometry N |
| --- | --- |
| B1 | ≥ 6 |
| B2 | 2 |
| B3 | 2 |
| B4 | 2 |
| B5 | 2 |
| B6 | 2 |
| B7 | 2 |
| B8 | 2 |
| B9 | 2 |
